# Test system: hES cells
# Assay: GCTM-2 quantification (alkaline phosphatase-coupled secondary antibody, OD 405 nm)
# Format: cell-based, human
# Source text: hES-3 cells plated with MEF, were fixed in ethanol and immunostained with GCTM-2 and then with an alkaline phosphatase-coupled secondary antibody (Dako). The activity of alkaline phosphatase was detected by adding a solution of 4-nitrophenyl phosphate (Roche, Mannheim, Germany), followed by reading the optical density (OD) at 405 nm. In order to validate the technique as a relevant indicator of the proportion of GCTM-2 positive cells, standard curves were done with the teratocarcinoma cell line GCT27C4, known to express GCTM-2.
# Cells were fixed in 100% ethanol and immunostained with GCTM-2 followed by alkaline phosphatase-coupled secondary antibodies (Dako). Alkaline phosphatase activity was detected by adding a solution of 4-nitrophenyl phosphate (Roche), and the concentration of the reaction product was determined by reading the optical density (OD) at 405 nm. In order to validate the technique as an accurate indicator of the proportion of GCTM-2 positive cells, standard curves were carried out with the embryonal carcinoma cell line GCT27C4, known to express GCTM-2 ^20.
molecule,measurement,setting,value
"PDGF-BB: Human platelet-derived growth factor isoform BB (protein, UniProt P01127 82-190, looked up) Platelet-derived growth …: SLGSLTIAEPAMIAECKTRTEVFEISRRLIDRTNANFLVWPPCVEVQRCSGCCNNRNVQCRPTQVQLRPVQVRKIEIVRKKPIFKKATVTLEDHLACKCETVAAARPVT","GCTM2 levels, PDGF isoform added with S1P","Example 1, isoform added with S1P",182.0±26.0 % of control
same,"GCTM2 expression, PDGF isoform with S1P","Example 2, 2 weeks, isoform 20 ng/ml together with S1P",294.3±77.3 % of control

# Reference: US7413903B2, “Methods of regulating differentiation in stem cells” (ES Cell International PTE Ltd., priority 2002, dated 2008)
